Reference: the RNAGym collection of RNA variant scans (doi:10.1101/gr.219683.116)

B1: mRNA-splicing (parent)
chain: AGUUGCUGCUGGGAGCUCCAGCACAGUGAAAUGGACAGAAGGGCAGAGCAA

Variants of: B1
Experiment: exon inclusion enrichment index; higher = more inclusion; WT1 exon 5 minigene, HEK293

Compared with G5C C6G U7C U10C A39G A40C, G5C C6G U7C U10C A39G A40G is lower in “exon inclusion enrichment index” value: 3.86 for the first, 0.367 for the second.

First: G5C C6G U7C U10C A39G A40U
Second: G5C C6G U7C U10C A37C
The “exon inclusion enrichment index” value of the first is lower: 0.671 for the first, 4.16 for the second.

Going from G5C C6G U7C U10C A37G to G5C C6G U7C U10C A37U, the “exon inclusion enrichment index” value falls from 4.39 to 3.22.

Going from G5C C6G U7C U10C A14C G15U to G5C C6G U7C U10C A14C G15A, the “exon inclusion enrichment index” value falls from 1.33 to 1.07.

First: G5C C6G U7C U10C A14C G15C
Second: G5C C6G U7C C9G U10G
The “exon inclusion enrichment index” value of the first is higher: 1.16 for the first, 0.749 for the second.

First: G5C C6G U7C C9G U10C
Second: G5C C6G U7C C9G U10A
The “exon inclusion enrichment index” value of the first is lower: 2.62 for the first, 2.85 for the second.

First: G5C C6G U7C U10C A35U C36G
Second: G5C C6G U7C U10C A35U C36U
The “exon inclusion enrichment index” value of the first is higher: 0.445 for the first, 0.0671 for the second.

Compared with G5C C6G U7C U10C A35U C36A, G5C C6G U7C U10C A31U U32C is higher in “exon inclusion enrichment index” value: 0.0112 for the first, 3.76 for the second.

Going from G5C C6G U7C U10C A31U U32A to G5C C6G U7C U10C A31U U32G, the “exon inclusion enrichment index” value rises from 0.77 to 2.24.

Compared with G5C C6G U7C U10C A29G A30C, G5C C6G U7C U10C A29G A30U is lower in “exon inclusion enrichment index” value: 2.29 for the first, 1.79 for the second.

First: G5C C6G U7C U10C A29G A30G
Second: G5C C6G U7C U10C A25G
The “exon inclusion enrichment index” value of the first is lower: 3.01 for the first, 5.05 for the second.

Compared with G5C C6G U7C U10C A25U, G5C C6G U7C U10C A25C is higher in “exon inclusion enrichment index” value: 3.84 for the first, 4.98 for the second.

Compared with G5C C6G U7C G8C C9U U10C, G5C C6G G8A U10A is lower in “exon inclusion enrichment index” value: 2.8 for the first, 0.226 for the second.

First: G5C C6G G8A U10C
Second: G5C C6G U7A G8A U10A
The “exon inclusion enrichment index” value of the first is higher: 2.37 for the first, 0.321 for the second.

Compared with G5C C6G U7A G8A U10C, G5C C6G U7C U10C A25G G26C is higher in “exon inclusion enrichment index” value: 2.49 for the first, 4.8 for the second.

First: G5C C6G U7C U10C A25G G26A
Second: G5C C6G U7C U10C A25G G26U
The “exon inclusion enrichment index” value of the first is higher: 5.6 for the first, 4.09 for the second.

Compared with G5C C6G U7C U10C A23C, G5C C6G U7C U10C A23G is higher in “exon inclusion enrichment index” value: 2.88 for the first, 3.57 for the second.

First: G5C C6G U7C U10C A23U
Second: G5C C6G U7C G8C U10C
The “exon inclusion enrichment index” value of the first is lower: 2.51 for the first, 2.87 for the second.

First: G5C C6G U7C G8U C9A U10C
Second: G5C C6G U7C G8U C9G U10C
The “exon inclusion enrichment index” value of the first is higher: 2.74 for the first, 2.53 for the second.

Compared with G5C C6G U7C U10C A37U G38U, G5C C6G U7C U10C A37U G38C is higher in “exon inclusion enrichment index” value: 1.52 for the first, 2.27 for the second.

First: G5C C6G U7C U10C A37U G38A
Second: G5C C6G U7C U10C A35C C36A
The “exon inclusion enrichment index” value of the first is lower: 1.78 for the first, 2.13 for the second.

Going from G5C C6G U7C U10C A35C C36G to G5C C6G U7C U10C A35C C36U, the “exon inclusion enrichment index” value falls from 2.6 to 0.625.

First: G5C C6G U7C U10C A31C U32C
Second: G5C C6G U7C U10C A31C U32G
The “exon inclusion enrichment index” value of the first is higher: 3.85 for the first, 3.82 for the second.

Going from G5C C6G U7C U10C A31C U32A to G5C C6G U7C U10C A29C, the “exon inclusion enrichment index” value rises from 2.89 to 3.11.

First: G5C C6G U7C U10C A29U
Second: G5C C6G U7C U10C A29G
The “exon inclusion enrichment index” value of the first is lower: 1.68 for the first, 3.72 for the second.

Going from G5C C6G U7C U10C A14G G15C to G5C C6G U7C U10C A14G G15A, the “exon inclusion enrichment index” value rises from 1.64 to 2.07.

Compared with G5C C6G U7C U10C A14G G15U, G5C C6G U7C G8C C9G U10C is higher in “exon inclusion enrichment index” value: 1.21 for the first, 3.59 for the second.

Compared with G5C C6G U7C G8A C9G U10C, G5C C6G U7C U10C A30U is higher in “exon inclusion enrichment index” value: 2.31 for the first, 3.07 for the second.

Going from G5C C6G U7C U10C A30G to G5C C6G U7C U10C A30C, the “exon inclusion enrichment index” value falls from 3.89 to 3.57.

First: G5C C6G U7C U10C A29C A30G
Second: G5C C6G U7C U10C A29C A30U
The “exon inclusion enrichment index” value of the first is higher: 5.17 for the first, 3.02 for the second.

Going from G5C C6G U7C U10C A29C A30C to G5C C6G U7C G8A C9U U10C, the “exon inclusion enrichment index” value falls from 3.82 to 3.11.

Going from G5C C6G U7C U10C A30U A31U to G5C C6G U7C U10C A30U A31C, the “exon inclusion enrichment index” value falls from 3.18 to 3.11.

Going from G5C C6G U7C U10C A30U A31G to G5C C6G U7C U10C A30G A31U, the “exon inclusion enrichment index” value falls from 3.75 to 1.7.

Going from G5C C6G U7C U10C A30G A31C to G5C C6G U7C U10C A30G A31G, the “exon inclusion enrichment index” value rises from 0.674 to 1.71.

Compared with G5C C6G U7C U10C A30C A31G, G5C C6G U7C U10C A30C A31U is lower in “exon inclusion enrichment index” value: 4.15 for the first, 3.41 for the second.

Going from G5C C6G U7C U10C A30C A31C to G5C C6G U7C U10C A23G C24A, the “exon inclusion enrichment index” value rises from 3.86 to 4.41.

Going from G5C C6G U7C U10C A23G C24G to G5C C6G U7C U10C A23G C24U, the “exon inclusion enrichment index” value falls from 4.88 to 1.96.

Going from G5C C6G U7C U10A to G5C C6G U7C U10C, the “exon inclusion enrichment index” value rises from 1.02 to 3.75.

First: G5C C6G U7C G8A U10C
Second: G5C C6G U7C G8A U10A
The “exon inclusion enrichment index” value of the first is higher: 3.31 for the first, 0.449 for the second.

First: G5C C6G U7C U10C A35C
Second: G5C C6G U7C U10C A35G
The “exon inclusion enrichment index” value of the first is lower: 1.69 for the first, 1.93 for the second.

Going from G5C C6G U7C U10C A35U to G5C C6G U7C U10C A31U, the “exon inclusion enrichment index” value rises from 1.25 to 3.18.

Compared with G5C C6G U7C U10C A31C, G5C C6G U7C U10C A31G is lower in “exon inclusion enrichment index” value: 3.8 for the first, 3.79 for the second.
